B1: 816 (protein)
chain: MTASTDHLRPLLEKLSLEQKAALVQGADFWTTVPLPEIGLRALTLSDGPAGVRGPRWDEREPSLNLPSGSALAASWDVDLAYRYGAAAASEARRKGVDVVLGPTINLHRSPLGGRHFECLSEDPELTAELGAAYVRGMQENGVAATPKHYVANDSETDRFTVDVEVDERTLREVYLAPFERAVEAGAWSVMSAYNSVDGVTMTENDLLENPLNSEWGFDGVVVSDWTAVRSLDAVAAAQDLAMPGPAPAWADLVDAVHDGRVDEADIDRKVLRILLLAERVGALEGADAVAPAPLDGPAFAKEAAVEGTVLLQNSGVLPLDLAGLTKVAIIGHNAKDARTQGGGSATVLPEKVVSPLDAIRAALPAAEVSYEIGAVVQEGVAEIPLASIENPVTGGPGVRVSFHGADGTELFAEDRRATALVWFGGDAPIGASRTIVLETRYTPAESGEIQLGFAGANPGRIFVDGELVLDDVPVIEGTDLGAAFLNPPSITSAVTVEAGRAVDLRAEFTRESRGALDGALSVTLGIAPERTDPDELIARAAAAASAAEVAVVVVGTNSKVESEGYDRVDLDLPGRQDDLVRAVAATGTPTVVVVNAGSPVVLPWAGEVAAIVQGYFGGQEFGHAIAEVLTGAAEPGGRLPTTWPAALADVPVADVTPVDGRLVYAEGLHIGYRAWLKDDVQPAFPFGHGLGYTTWSWGTAQRHDDTVEVTLANTGEREGKQVVQVYAERADSTVDRPARWLVGFAVVHAEPGRTVTAVVPVPARRLAHWAGEWVVEPGAYTLRVGSSVADLPLSVEWVQA
modifications: Microbacterium hydrocarbonoxydans
B2: 857 (protein, listed as Streptomyces venezuelae)
chain: MTETGAHTAADAARESVVEAALAKLDLDSKTRLLAGQDMWSLPALPEIGLTSLVMSDGPIGVRGVRWTADDPSVALPSPTALAAAWDPALARRAGRLLAQEARRKGVHVLLAPTVNLHRTPLGGRHFEAYSEDPLLTGAIGTGYVQGVQDGGVGTTVKHFVANDAETDRFTVDNRIAPRPLRELYLAPFEAIVKNAHPWGIMTAYNQVNGVTMTEHRHLVNEVLRGEWGFDGFNVSDWMAARSTTGDIEGGLDVAMPGPQTVYGEALAAAVRAGEVEESTVDAAVRNVLRLAARVGALEGAPPVVTDPPAAIDGDALAREIAHRGFVLVRNENGALPLKNGTVALSGAAARDARVLGGGSAQVFPEHIVSPLDGLTAALPEGALTYTIGADPSDELTPADQGFTLRAVCRDASGTVLGEGTLPNGQVQWIGDDLPAGVTHEALASIEVVGRFTPRETGEHAFGTRGLGAFRLSVDGETLFDGVQALGPETDPFEAFFGSPVERAKVVLTAGETVDVSLLHTLDKEFAAPLPAVMFSFVHLGPRRDPDELIAEAVEAARAADTAVVVVATTERVESEGFDRKDLALPGRQDDLVRAVAAANPNTVVVVNAGSPVELPWREEVAAVLLSWFPGQEGGAALADVLTGAEEPGGRLPTTWPAALADAPVTEVTPTGGELDYAEGVFIGYRAWDKAGAVPAYAFGHGLGYTTWTYESLTARPGTATVRLTNTGDRPGREVVQVYLAPVDDGVERPARWLAGFGCVEAGPGETVETEIALPRRAFEIWDEEKNDWSFVGGAYEVLAARSLTDARLSATLEV
B3: 827 (protein, listed as Bionectria ochroleuca)
chain: MAPTDVNAVLSKLTLEEKISILAGADFWQTVPIPEKGVPALKTSDGPNGARGETFSGGVTAACFPAACSVASTFDVDIARRIGVALGEETLTKGARCLLGPTICGHRHPLGGRNFESFSEDPFLAGTLASQSVQGIQSTGVAATMKHYAVNEQETERLSVDEIVDERTMREIYLRPFERVVKEAKPAAVMTGYNQVNGSHCDSHEFLLKQVLRGEWGWDGLVMSDWGGVNSVAESLNAGLDLEMPGPTRWRKVDEVVAAVKAGKVSEETINDRAIHVLRFLERQNCFKDPTIPPEQAVNKPEHQALIREAGSKGIVLLKNNDNVLPLTKEKARGKKIALLGLAKESLAHGGGSASLNAHYKITPWDALQEAYKGENVEFTYAKGAHTLRQLPVITKNVVDVDGKPGFTWRSYHVGESQPYNTVGGHAKSEISLLDGLNMVNTSIELEGTFTASESATYYFTLSGLGPSSVAINGTVVFEQEDNCSDPMGFLLGGVASPLVKYEFESGKQYKILLKSTPPAPVEGVDLGILEGKVGVRLGNMSASEHDKDILTEAIDLAKAADYAIVFTGHDPSWETEGQDQHSFNLPKDGSQDRLVSGVAAVNQNTIVVNSTGVAVAMPWLDEIKSLVHTWFPGQEAGNSIADVLTGERNPEGHLTCTFPKRLEDCPAYGNFPGEYNGRQLTVKYAEGVFVGYRHFDRLPAEKVNFPFGFGLSYTTFGFSDFDVKPTAAGDEWTASVKVTNTGSVKGAIAVQLYVGNSKTSPENPVKSLVSFKKVTLAAGGSAVVELPAQGRDIAFWSQQEHKWVLEAGEYNFSVGKSAGDLVATATVQVGGKTYAP
B4: 891 (protein, listed as Pseudarthrobacter chlorophenolicus)
chain: MNPTLPAAATVPAVGSPDAEARIRDLAESLTLEQQVQLLTGADVWSTHALPAIGLSRVVMSDGPAGVRGEDFDERHDSVSLPSSSALSATWSVDLARRYGQVLGQEARRKGVHAVLGPTINLHRSPLGGRHFECMSEDPRLTATIAAGYVAGVQSMGVGATPKHYLANEAETDRFTSDSVVDERPLRELYLAAFEDAVTEARAWLVMSSYNSINGTTASENDLLETPLSTEWGFDGVVVSDWTGVRSVDAANAHQDLEMPGPVGHWGPKLLAAVGDGRVSRTAILDKVVRILRLAARVGSLDGVSPAVTELPAPLNAPAVAREVAVRGAVLVRNKDGLLPLDPAALGSVAVSGHNAEEARTQGGGSATVMPKQNISPLEGLREALPANVAISYHRGAKVAEGLQAFPRTSLHNPVSNVPGLRVTFLAADGTELSGEDRLASHLIWFGIGIPEGAAAIRMETDWTAPSAGTHHLGLGTVGRIRLSLRGQEVFNGDIEDETEVLGAALFDPPKTVHAIETEAGERVRIEALFELPADQAIPFTAILLGEETVVADPQAEIDAAVEAARTADVAVVVVGTSAAIESEGFDRKDLDLPGHQNRLVEAVAAANPRTVVVVNSGSPVLMPWLDKVGAVLLGWFGGQEFGRAIADILLGAEEPGGRLPTTWPAALEDVPVLDTTPMDGKVVYSEGIHVGYRAWLKQQAAGGAAPALPFGYGLGYTTFELCTPHASQAVPAGKDVVVHVPVRNTGTRAGREVVQVYLERPESAVERPVRWLAGYAGTHLAAGGTSSVEVRIPGRAFAHYDGGWQVEPGTFRILVGRHSADGFQALDIDVR
B5: 881 (protein, listed as Treponema azotonutricium)
chain: MTSKEIIPQMTLEEKAALCSGRDFWSLKGIERFGLEAIMVTDGPHGLRKQGGDGDHLGLNQSVPATCFPAACATACSFDRSLLEEIGAAMGEECRKEKVAVLLGPAANIKRSPLCGRNFEYISEDPFLTGEIAAALIKGVQKLGVGTSLKHYAVNNQEKRRMTINAVVDERAFREIYLAGFEKAVREAKPWTLMCSYNKINGTYASENKKLLTDILRDEWAYQGLVMTDWGASNNRLEGIKAGLDLQMPGPDADNDKRIIEAVKSGALSIEDLDKVVARVVDLIIKAGEGDSIGFACDMEAHHLLARRAAAESAVLLKNDENILPLVPGKTLAVIGAFAISPRYQGAGSSKINPSHLDKAFDAIMRTGIKAEYAPGYSLEAGSGVNEKLIAEAAKLAGEKDSAVVFAGLPDEYESEGFDRASMDMSESHNKLIEAVAKANPNTVVVLQLGSPVALPWADKVKGILLLYLSGQAGGGAAADLLTGNACPGGKLAETWPLALEDNPSYGNFPGSTKTVEYRESIFAGYRWYDALEKEVRYPFGFGLSYTSFEYSDLKLGTSAEAKDNFKKGDALKVSFTVKNTGSREGSETAQLYIAPDASVLFRAKKELKGFEKLHLKPGESKTVTLILDERSFAYYNVQAKDWSLEGGLYRILIGASSRDIRLEGKLELTGDKRETAFAFLKGGRPVFDDASFKAIYGAELPPKERLPGEPFTVNTSVEEIKDTPIGKALFGMAVQGLEQAFGKEKSDLKVMMESMLMDMPLRGLGMMSGGRLTPPVIEALVEALNGKPNPIASGLLGMK
B6: 888 (protein)
chain: MTESVAHLRPLLDALTLEQKAALVQGADFWTTVPLPEIGLRAMTLSDGPSGVRGPRWDEREPSLNLPSGSALAASWDVDLAYRYGAAAASEARRKGVDVVLGPTINLHRSPLGGRHFECFSEDPELTAELAAAYVRGMQDNGVAATPKHYVANDSETDRFTVDVDVDDRALRELYLAPFERAVEAGAWSVMSAYNAVDGVTMTENDLLETPLNSEWGFDGVVVSDWTAVRSLDAVAAAQDLAMPGPAPAWADLLAAVRDGRVQEADLDRKVLRLLLLAERVGALEGSTALEPAPVDAEAFAREAGIEGTVLLRNTGALPLDVAAIRSIAVIGHNARDARTQGGGSATVLPERTVSPLDGLREALPEADLRYEIGAVVQEGVAEIPVAQLRNPETGEPGLRVRFLDEDGAELFSEDRRSTALVWFGGDAPVAASSRVVFETVFTPAETGEIQLGFAGANPGRLYVDDRLVLDDTPVIEGTDLGAAFLNPPSLTAGVSVEQDTPIRVRVEFTLARGGALAGALSATVGIAPEATDPEALIARAVEAAAAADVAVVVVGTNSKVESEGYDRIDLDLPGRQDDLVRAVAATGTPVVVVVNAGSPVVLPWADEVSAIVQGYFGGQEFGHALADVLTGAAEPGGRLPTTWPATLADVPVQDVTPQDGVLTYGEGIHVGYRAWLKDAATPAFPFGHGLGYTTWSWGAAHRHGDAVDVTVRNTGDRAGKQVVQVYAERGDSSVDRPVRWLVGFATVHAEPGETVTATVPVPGRRLAHWADGWVVEPGAYTLRAGASVDDLPLALEWTVAE
modifications: uncultured Microbacterium sp.

Legend:
Type in all cases: biochemical, Quillaja saponaria
[1] = Experiment 5-3: screening of additional glucosidases for deglycosylation with QS-18 in treated bark extract (80%) at pH 6 and 35 deg C; settings: TBE 80% (QS-21 approx. 4 g/L), pH 6, 35 deg C; UV HPLC
Description: Experiment 5-1 was repeated, replacing CBE with Treated Bark Extract (TBE) at pH 6. TBE was prepared from CBE by PVPP treatment and concentration, to provide TBE with a QS-21 concentration of approximately 4 g/L. TBE was adjusted to pH 6 by dropwise addition of 2M NaOH with stirring.

[2] = Experiment 5-2: screening of additional glucosidases for deglycosylation with QS-18 in crude bark extract (80%) at pH 6 and 35 deg C; settings: CBE 80%, pH 6, 35 deg C, 18 hours; UV HPLC
Description: A plate was lysed at pH 6 as described in Experiment 4-2. 40 uL of clarified lysate was transferred to a reaction plate
The pH of CBE was adjusted to pH 6 by dropwise addition of 2M NaOH with stirring. 160 uL of pH 6 CBE was added to each well of the reaction plate. The reaction plate was sealed and incubated at 35 deg C. with shaking for 18 hours.
The reaction plate was quenched by adding 200 uL of MeCN (2% acetic acid (AcOH), 1 mg/mL hexanophenone) to each well of the plates. The quenched reaction plate was re-sealed and incubated at 20 deg C. with shaking for 10 min. The reaction plate was then centrifuged (10 min, 4 degC).
200 uL was transferred from each well of the quenched plate to the corresponding wells of a fresh 96 well plate and sealed. The plate was analysed by UV HPLC with the method of Experiment 4-4.

[3] = Experiment 5-1: screening of additional glucosidases for deglycosylation with purified QS-18 (0.04 mg/ml) at pH 7.5 and 30 deg C; settings: pH 7.5, 30 degrees C, 18 hours, LCMS/MS
Description: The 94 additional genes, together with positive control (DNA encoding SEQ ID No. 262) and negative control, were transformed, expressed, lysed and reacted in the same manner as described above for Experiment 4-1, except the reaction was incubated at 30 degrees C. for 18 hours.
Samples were analysed by LCMS/MS according to the procedure in Experiment 4-1.

| Molecule | Experiment 5-3 % conv [1] [%] | Experiment 5-2 % conv [2] [%] | Experiment 5-1 % conv [3] [%] |
| --- | --- | --- | --- |
| B1 | <0.5 | <0.5 | 73.5 |
| B2 | <0.5 | <0.5 | 69.0 |
| B3 | <0.5 | <0.5 | 69.2 |
| B4 | <0.5 | <0.5 | 74.7 |
| B5 | <0.5 | <0.5 | 77.5 |
| B6 | <0.5 | <0.5 | 78.0 |
